Measurements from US20230374534, “TRANSGENIC PLANT HAVING COLD RESISTANCE OVEREXPRESSING THIOREDOXIN TRX-H2 PROTEIN” (INDUSTRY-ACADEMIC COOPERATION FOUNDATION GYEONGSANG …, published 2023).

Experiments:
CBF1 = CBF1 (Arabidopsis thaliana, UniProt P93835 SEQ:1-213); assay: EMSA; 1 mM DTT (reducing), poly(dI-dC), 25 C, 30 min; binding redox-dependent; gel only in figure; settings: tags: His (pET28a, E. coli); label: biotin
Method: FIGS. 3A to 3D are the results of EMSAs showing the redox-dependent binding of His-CBF1 to biotin-labeled COR15a promoter fragment (oligoprobe) in the presence of 1 mM DTT (FIG. 3A), 1 mM H₂O₂ (FIG. 3B), and a Trx system comprising 5 μM Trx-h2 (FIG. 3C) or Trx-h2(C/S) (FIG. 3D) with His-MBP as a control. FIG. 3E is the schematic representation of the COR15a promoter. P1 and P2 indicate the primer binding sites for qRT-PCR. […] (FIG. 3F) or 4° C. (FIG. 3G) for 6 h.
To carry out EMSAs, a biotin-labeled oligonucleotide probe (Table 1) was processed using a lightshift™ chemiluminescent EMSA Kit (Thermo Fisher Scientific, Rockford, IL, USA). Recombinant CBF1 (5 μg) was incubated with 40 fmol of biotin-labeled probe and 20 μl of reaction mixture containing 25 ng/μl Poly (dl-dC) binding buffer at 25° C. for 30 min. The reaction products were resolved on a 6% polyacrylamide gels. Probes bound to CBF1 were transferred to charged Hybond-N membrane and detected by western blotting with anti-biotin antibody (Abcam, Cambridge, MA, USA).

MBP (control) = MBP (control) (UniProt P0AEX9 P0AEX9:27-396); assay: EMSA; His-MBP used as negative control; gel only in figure

CBF1, sequence (P93835 whole entry, the tested form may be a part): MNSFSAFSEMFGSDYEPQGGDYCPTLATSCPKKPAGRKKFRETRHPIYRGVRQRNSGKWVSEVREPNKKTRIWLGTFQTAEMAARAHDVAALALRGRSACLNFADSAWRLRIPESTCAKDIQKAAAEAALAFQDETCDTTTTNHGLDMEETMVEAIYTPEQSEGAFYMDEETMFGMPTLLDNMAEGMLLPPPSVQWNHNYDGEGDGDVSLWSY

B1: COR15a promoter CRT/DRE probe (-275 to -253) (dsDNA)
DNA 1: ATTTCATGGCCGACCTGCTTTTT
DNA 2: AAAAAGCAGGTCGGCCATGAAAT
binding result (CBF1): binds | binding result (MBP (control)): no binding
